# Results from US20020115613A1, “Treatment of prostate cancer” (priority 2001, published 2002).
# B1: Tumor necrosis factor α—Related Apoptosis Inducing Ligand (protein, UniProt P50591 1-281, looked up)
# Tumor necrosis factor ligand …: MAMMEVQGGPSLGQTCVLIVIFTVLLQSLCVAVTYVYFTNELKQMQDKYSKSGIACFLKEDDSYWDPNDEESMNSPCWQVKWQLRQLVRKMILRTSEETISTVQEKQQNISPLVRERGPQRVAAHITGTRGRSNTLSSPNSKNEKALGRKINSWESSRSGHSFLSNLHLRNGELVIHEKGFYYIYSQTYFRFQEEIKENTKNDKQMVQYIYKYTSYPDPILLMKSARNSCWSKDAEYGLYSIYQGGIFELKENDRIFVSVTNEHLIDMDHEASFFGAFLVG
# notes: 281 amino acid type II transmembrane protein of the tumor necrosis factor α family; purchased from Biomol
# Assays:
# LNCaP cells = conditions: cited from earlier work
# prostate cancer cells = conditions: cited from earlier work
# PC3AR cells = experiment: Induction of apoptosis / cell survival (FIG. 1E, 6A); assay type: cell-based
# Method: PC3AR cells are a clonal cell line derived by stable transfection of PC3 with a full-length human AR cDNA (Dai, J. L., et al., Steroids, 61, 531-539, 1996). PC3Neo cells were stably transfected with neomycin vector alone. Cells were grown in RPMI 1640 with 5% FBS (Hyclone, Logan, Utah), 100 units/ml penicillin, 100 μg/ml streptomycin, 0.25 μg/ml fungizone and G418 (350 μg/ml) to select for neomycin-resistant cells. In experiments using antiandrogens, cells were maintained in 5% DCC stripped serum for at least 48 hr before treatment with hydroxyflutamide (Sigma Chemical Co., St. Louis, Mo.). The medium and all the drugs were replaced every two days. Cells were treated with 200 ng/ml, 400 ng/ml or 600 ng/ml of TRAIL (Biomol Research Laboratories, Inc, Plymouth Meeting, Pa.) for 2, 4, 6, 8, 16 and 20 hr. Cells were treated with 5 μM hydroxyflutamide for 5 days before the commencement of treatment with 400 ng/ml TRAIL.
# Two methods were used to measure induction of apoptosis by drug treatment: the MTT assay and the Apoptosense assay. The MTT assay measures mitochondrial enzyme activity and is indicative of the number of surviving cells. The Apoptosense assay is an ELISA, which utilizes M30 antibody to recognize the C-terminal domain (amino acids 387-396) of cytokeratin 18 that is exposed in apoptotic cells after cleavage by caspases.
# Cells were seeded in 96-well plates (6000 cells/well) and treatment was started 24 hr after seeding the cells. After completion of the treatment, cells were incubated at 37° C. with the MTT reagent for 3 hr and processed according to manufacturers instructions (Promega Corporation, Madison, Wis.). Color development was measured at 490 nm on a Spectra MAX 340 microplate reader (Molecular Devices, Menlo Park, Calif.).
Molecule,"induction of tBid (Sridhar et al., 2001) (LNCaP cells)","ability to induce apoptosis in prostate cancer cells (Sridhar et al., 2001) (prostate cancer cells)",apoptotic response at 200 ng/ml (PC3AR cells; 200 ng/ml TRAIL),"apoptosis (PC3AR cells; 400 ng/ml TRAIL, by 20 hr, FIG. 1E) [%]",apoptosis at higher dose (PC3AR cells; 600 ng/ml TRAIL)
CC#C[C@]1(O)CC[C@H]2[C@@H]3CCC4=CC(=O)CCC4=C3[C@@H](c3ccc(N(C)C)cc3)C[C@@]21C [Mifepristone],weakly induced,marginal ability to induce apoptosis,,,
B1,,,lower response,~41,did not significantly increase apoptosis
